According to patent US20110172153A1:
Ends that are not written are not given here.

Biological target: PTH receptor, R^0 and RG conformations (species not stated at the figure legends) (Homo sapiens (Human)) (UniProt Q03431)
Test: R0 binding affinity in vitro, table inset of FIG. 18; reference [E19],Mc-hPTH(1-34)OH

fold reduction of binding affinity for R^0 against [E^19 Mc]PTH(1-34): 10 fold
Binder: AVAEIQLMHQRAKWLNSMERVEALRKKLQDVHNF-OH [[A^23,E^19],Mc-hPTH(1-34)OH]
